Experimental data taken from a protein production outcome set (Wang et al. 2014).

Experiment: label from the status in PepcDB records

Sequence	protein production
TTLQVREQTARRTLAALGYNECVTYSFIDEAAARLFGGGSEAVRVENPISSEMTHLRPDLLPGLLRAAARNQARGFADIALCEIGPVFAGGEPGEQQLQATGLLVGAVAPRDPFGSRRPVDVYDAKADAEAVLAAVGAPARMQISRKVPGWWHPGRSGIVGLGPNVLATFGEVHPRILREMDVKGPAVAFTVLVANVPLPKVKTPTRPALKL	failed
MTENIPKSVAAMIRQPRKISPFWLLPIVAFIIGALLFFQILKEQGETIKIRFNAGDGIVAGKTIVRYQGLQIGQVKKVYFVDDLKKVEVQAQINSEAKSVLREGTTFWLVKPSASIAGVSGLDALVSGNYITLAPGNGAITNHFVAQDEQPAATVTDGDLLVHLIASDLGSITIGASVYFRKVPVGNIANYRFTEDKQKVEIDVVINKKYAHLVKQNSRFWNISGLNANISFSGLAVNVDSLASVIQGAVSFDSPEDSTLAEQASRFDLYADLKSAQRGVDVNITVPAMTSLKVNETPVFYQNTQVGVLSFIEAMPIDNKEIERVEENAMLRGRLLIDPNYTHLFREQSTILLKEPKFNLNAEQLTNIGQLLRGVYFEVKAGNGLAKRTFTVEKESDYLLSRPDMLALTFFAPKAYGVEEGQGIYYNDVKIGELLKRTLSVDGVTLQGIIFPAYRYLVGENSKFMAIAHLDVAVGLDGLRVKAGSPSHWLQGGIRLLEGKVQGVAKKQYPLYKDIDNAQAGILSDIKQPTLTLSASELEGIDKGAVVLYRNYQIGEVLNVKPQSQKFDVEVYIEPAYRQLIGNKSRFWVESAIEAELSAKGLSIQSAPLMRTLRGAISIDNGGDKMDRTLYANRIKATANKTRISLIAKDASKLFKGMAIKYMGLTIGQIETLALQNAKKQIKLTAYIEAPYYSIIAKEGSCFTAISPEVTPSGVKNIDAVLQNYIDVEAGNGGLATEFNLIDTDTNKTTYANNFPIIVETSDARGIEVNAPVLYRGLQVGIVQRLQLSELADRIQIHLAIEKQYQHLIRNNTQFWAASGYTMDISLQGVSLNSGTMAQLLKGGIEFLTPSTRVVEPQAKPNRRFLLQRKIPAKALSWDQAIAE	failed
RSTIGAGQKVNVEFVSANPTGPMHVGHVRGAVVGDALARLLAYAGWNVTREYYINDGGAQVDVLARSAFERYREAHGLEPEIREGLYPGDYLIPVGEALKAKYGDSLLDKGEQHWLTEVREFATEMMMQMIREDLAALGVEMDVYSSEKALYGTGKIEAALDRLKEMDLIYEGVLEPPKGKTPEDWEPREQTLFRSTAHGDDVDRPVKKSDGSWTYFAPDIAYHYDKVTRGFDQLIDIFGADHGGYVKRMKAAVAALSAGRVPLDIKLIQLVKLWKNGEPFKMSKRAGTYVTLRDVVEQVGTDVTRFVMLTRKNDATLDFDFDKVLEQSKENPVFYVQYANARINSVLRKAREQGMDVSDA	failed
MTRVKSKLDEELSSPWFYTVCTMGGMLSAGTTHLAITPLDVLKVNMQVNPVKYNSIPSGFSTLLREHGHSYLWRGWSGKLLGYGVQGGCRFGLYEYFKTLYSDVLPNHNRTSIYFLSSASAQIFADMALCPFEAIKVRVQTQPMFAKGLLDGFPRVYRSEGLAGFHRGLFPLWCRNLPFSMVMFSTFEQSVEFIYQKIIQKRKQDCSKAQQLGVTCLAGYTAGAVGTIISNPADVVLSSLYNNKAKNVLQAVRNIGFVGLFTRSLPVRITIVGPVITLQWFFYDAIKVLSGFPTSGGVKKPVDAAKLSV	failed
MSSDVQKGDNLETPGARDLLLQTASNIMREGDVVDISLSELSLRSGLNSALVKYYFGNKAGLLKALLDRDMENIVKSVDALLAKDDMSPEAKLRRHISKCIDTYYDYPYLNRLLMRLVRDSDEAEAKRIADQYLLPLHRAYNRFIGEGVKAGVFRPINPQLFYFTVTGAADRFFSARLVLKHCFDQDTLTEQLRDSYREHTVDFIMAGILAH	not failed
MNRISVVILNWNGCEMLRSFLPSVLRYSEAEGVEVCVADNGSTDQSVEMLRREFPSVRRILLDGNHGFADGYNLALRQVEAEYVVLLNSDVEVTGQWLQPMAAYLDAHPEVAACQPKIRSWRQKEWFEYAGAAGGFIDRYGYPFCRGRVMGVVEADRGQYDTVLPIFWATGAAMFIRLADYREAGGLDGRFFAHMEEIDLCWRLRARGRGIVCIPQSVVYHVGGATLKKENPHKTFLNFRNNLVMLYKNLPDRELAGVMRVRCWLDYIAAATFALKGQPANAKAVVRARREFKLLRDSFRDARAENLRKTSSHFIPERIKSSILVQFYVKGRKFFSQLSDLKG	failed
MEQSFFRELLHYQRPKDNPFRLVFAGLVMFSILFLGYINHQLLISSFGSLGIFTFLYYQPLPLKQLMTRLSVVGSYLFLGNLLGMLSTHIAWLIPIVVALVGFGGRFFFEVYDISKPGAFFGVMVTAMGASTSIPLAKIPFMSGCMLLGIGFSILFALVLHFTEKEISVPLAKRSLRERIYQHPEAPLDSIYYSFVLFFAVYISESLHLQNPYWLVVSCASILQGDNLRAIKQRNIQRIFGTTIGLVISAFLLNLALTTFESIVVITILFVTVEYFIRRNYGLAQFFTTPMALMLSLLVRQQYVITLIQFRFLGIVLGSLLGLSSSVAIHRCSNVL	failed
MHRFFATRTSRIISVVLSLTFLAGCSLSEIDRIERQTKDSGEIARRISDTNRAKAQPAVRWMDKPWVSLKPLAPVVANPEEKILPPCQITINRPDGMNLPELGQRITGLCGPRVTITPDAFLVLSPANVRSGTSQQMPGSLPAPDGHGRVSLPYLGAQSPSASVMKQSDKHISTLKWQGDLPGLLDTIGSRLGLSWRVNKGNIVFYQLDTRMFQLVILNTKISSSASVTSGSSSSIGSSGGTNSGVSGESSSAQKTSVDLNSDLYGDIKKTIENMLTPSKGRFWLSSASGTLTVTDTPETLERIGRYIDYQNELLNRQVQLNVQVLSVTQSRKEQFGLDWKLVYQSLNNIGASVTGNLINAADNAFSGGLSILDTATGPAAKFSGSELLIKALSQQGNVSLVTELNRATINLTPVPFQISDQTGYIQSSSTTATANAGTTSSMQTGIITTGLFMSMLPYIQENGDVQLQFAFTLSDKPTIQPFFSRDGNTRTDTPAFKLRSLTQTVNMRAGQTLVLTGADQLDSVANKQGAFTPGNFLFGGGHVGSDTRTTLVILITPVLLR	failed
MREQLRAHGIGPNDIHTLLLSHFHADHIAGLRDFPRARILASEPGWRAVRGLSGLAAVRQAFLPGLLPPDMESRLSFVEAFALQALPADLAPFSHGRDVSGCGEVFVVDLPGHAAGHLGAFVLGDAGWTLLASDAAWSEEGYREMRGPSELSFLVQHSRRSYYDTLARLHALHRGGRVDILLTHQEETPCLEHHHHHH	failed
MGSSHHHHHHSSGRENLYFQGMRLKSEMFVSALIRRVFAAGGFAAVEKKGAEAAGAIFVRQRLRDGRENLYGPAPQSFADDEDIMRAERRFETRLAGVEGEEIAALLERERRFDSDLWVVEIETDEIGTLLTLVDQPQA	not failed
MEFNDLGITIKELRIKKNISQSELCHGICSQSQISKIEKGMIYPSSILLYQLSERLGIDPNNIFALTQNKRLKYVENVKYVIKDCLKQKQYKELYEIVKKEKNLNNFQTKDEKQFLMWHEAIAIFMVDKSIKTALDFLNNALKLTLTNSDFLSEREIDIMQTMAIFYAENKEYEKSINIFKRCLTNFNKLDFPRDKEIKLKLMLNLAKCFDFTYQHEEAIKYIDKGIKLAINLNTLYLLGELFYLKGQCLLKMKQHNVEDVIYNWKKALFIFELTEKEYYTKMLPDELIELQNKKHS	failed
MASEMKFAWLLAPDTYWDEKKTFITAALESGIDHIVDTADSGRIKKLGNLTLISPDEDADIVLVGRDGEGDGTLELPETLEYSRDIEMASELSESGRQVAAYVEIRSKAHEELARRLGRVVDYLILVGEDWKIIPLENIIADLQEEDVKLIAAVADVDEARVALETLEHGTDGVLIEPADISQIKDIAALLENIESETYELKPATITRIEPIGSGDRVCVDTCSIMGIGEGMLVGSYSQGLFLVHSESLESEYVASRPFRVNAGPVQAYVMVPGGRTRYLSELETGDEVIIVDRDGRSRSAIVGRVKIEKRPLMLVEAEYEGMKVRTLLQNAETIRLVNDKGEPVSVSELGEGDRVLVYFDESARHFGMAIKETIIEKLEHHHHHH	not failed
MSNEISLCMIVKNEEKYLFQCLDSVKDIVDEIIIVDTGSTDKTVEIAKKFGAEIHYFMWNNSFSDARNESLKYATKDWIFIMDGDDEFSKDDKEKFKELVKNNLKEDCLYYFETLSYCGEFVDSSNISVNLNPRLFKNNYGYKYEGIVHNQLINTEKEIKNVIYNIRIYHYGYLEDVSKKKNKRGRNIPLLKKQLKENPDDRFAHFNIGNEYYAIGDLQKALTHYCEAYKDFNPSSGFGFVLITRLIVTNFGIGKHEKAIEFADIGLEYYPNATDIYFLKALIYEATRRPTLAIKALKRCIEMGEPPSNLKLYYGTWSFKALYELVNIYMGLKDYEEAYKYCIETIKAKNDFVNPVYVIGHILKERKTPIEEFKVELEKLFSDYPKAYFFIANILYDEGYFNEALEYTDKCEKEGLNSDAILDLKLKAMIRAQKFNECAEANYFAKESVFYFNASMYKVLSLVLIGKFKEALKDLEIFKDGKLKRQDKKELEVYSQFVKLFMNEETKVLSEDKEDKEYTGFILDICDILLSNKLYDEFEKALNLFNLISDENVLLNLSKLYYKHGIESMAKKEAIRSIKEFEVFDNEILDILR	failed
MRTLTTLLGNSQKLDGGAMFGNAPRALWSRWMQPDAENRIDLGCRALLVRDGERNVLVEAGIGAFFPPALRQRYGVQEERHVLLDSLAAVGLDDADIDVVLLTHLHFDHAGGLLAAWEEGQPARLLFPNAHFVSGRRHWQRARQPHPRDRASFVPELLDLLQASGRLELLDDGERSAHLGEGWRFHFSEGHTPGQMLPEIAMPDGPVVFSGDLIPGAPWVHLPLTMGYDRFPEGLIEEKERLLDSLIARNGRLVFTHDPCVAMGRVRRDEQERYSLYDTLERVENLEA	failed
MEKAPLLLETVEQAVRILQESPFVAIWNYKVLSVQAGAVALALPAQPQFYRPGGIIQGGCLMTLADTAFWLAAMTELGIDAPIVTLEMKTHFLRAAQADVYCRAEVMKSGRRVTYGTATITDAAGQTLSHHTLTYLAALEHHHHHH	failed
QGPVGTRIRLALGQDVEAANALMATTGDGVRIIPVLATAIEDGSASSAMLAGLGGIGTNAYHEAASHTFTDRPMNEALTTVSLTLVAADEEDRIVGVLSATAPGTLIDMAMSNGFTAEKAMALSLFVAKIHGLAVAEHARGQGIAAALLKRTWQVYQQLGYMLLYGSYEADRDLAAFYTRSGYTVHAPG	failed
MNEIYDREQMIKLLDLAKNTEMELPINLAIGLGLRISEVLGLTWDNIDFEENTITVNKITSRINGSVILKEPKTESSVRKISSPKELMSLLKEYKIKQNKNLLKSSIRNNNNLLFFNKKCEPIAEDVMSKKFKRFLEKNELPHIRFHDLRHSHVTLLINSKVPIKVISERVGHSNISTTLSVYSHVLKEMDKEASDKISESLFNANLEHHHHHH	not failed
MLSGKKTILVFSMLFATFSSHADNFPKLNQALPSGIDARAIAPVFDFDTDGCLPSAGVSRSGVQNGGLKPSGNITGGCRWSNFLDSSNTLHRYACVNSAGSRYCGSFYALYFLKDQILNGVNSGHRHDWEHVAIWTKNGVVTHGSYSAHGKLTTKEASSIDKQDGHLKFSYHKDGPLTHAFRFSKTNEQAENPYGKFVTPDLISWYLMFGDGINNQELRNLLNAFDYGSASIPLKDGNFLTNLNNGRPAGYPEFTDASITVSK	failed
MRGFFSNPWIRWALSLAFLGVILFFLRDQLDFLKMGIQQIRHVSPVGVALTMVALVLSFVAMARVMQIMLKAGGSPATLKATTALTFAANSWSATLPGGPAFSAILTYKVQRSWGASAVLCSWFFLLSSALSTVWLVALGVIAVFYMGASLNLWSLIATFIAMVGLSGAVYWAANNPDSLARWVRKLTKNREWGFVEKLLGSIEQLRSVSLTGPQFAASTAWSLGNRLFDAISLWICIWAVTGTAPMFEPEPNNTTIAGVLLAYTTAKIAGSIQATPGGIGPIEAAYIAALVATGMTAVEAAGAVIIYRLCSFIIMAIVGWVIYFIYFTPQGLKANESLDVEQDTINSDSNRQSAIERPDT	failed
